Key:
Test in all cases: holdup assay
Set-up in all cases: key: below the threshold = too weak to quantify, mostly under pKd 3.1 to 4
Conditions in all cases: plain residues with an end cap or a label only (N-terminal biotin on a linker: ado-ado)
[1] = biological target: DLG1_3, Q12959
[2] = biological target: DLG2_3, Q15700
[3] = biological target: T1, DLG3_1, Q92796
T1 sequence (Q92796 125-227, limits assumed, looked up): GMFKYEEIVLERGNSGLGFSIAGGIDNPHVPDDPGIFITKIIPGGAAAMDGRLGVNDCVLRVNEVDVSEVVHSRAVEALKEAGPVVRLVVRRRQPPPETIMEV

[4] = biological target: T2, DVL3, Q92997
T2 sequence (Q92997 244-331, limits assumed, looked up): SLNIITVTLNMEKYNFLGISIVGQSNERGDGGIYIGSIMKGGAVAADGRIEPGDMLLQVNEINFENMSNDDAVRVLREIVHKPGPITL

[5] = biological target: GRID2IP_2, A4D2P6
[6] = biological target: T3, GRIP1_3, Q9Y3R0
T3 sequence (Q9Y3R0 247-346, limits assumed, looked up): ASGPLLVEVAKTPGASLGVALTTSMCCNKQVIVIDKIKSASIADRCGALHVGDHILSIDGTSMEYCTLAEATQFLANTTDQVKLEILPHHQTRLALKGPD

[7] = biological target: T4, GRIP1_7, Q9Y3R0
T4 sequence (Q9Y3R0 999-1096, limits assumed, looked up): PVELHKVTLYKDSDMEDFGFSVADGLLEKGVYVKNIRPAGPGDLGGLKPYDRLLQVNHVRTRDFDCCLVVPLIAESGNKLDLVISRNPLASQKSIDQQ

[8] = biological target: GRIP2_7, Q9C0E4
[9] = biological target: HTRA1, Q92743
[10] = biological target: Inadl_5, Q8NI35
[11] = biological target: LIMK2, P53671
[12] = biological target: T5, LRRC7, Q96NW7
T5 sequence (Q96NW7 1440-1537, limits assumed, looked up): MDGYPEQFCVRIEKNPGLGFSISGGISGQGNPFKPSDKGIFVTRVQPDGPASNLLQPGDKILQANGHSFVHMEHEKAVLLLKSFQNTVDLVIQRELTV

[13] = biological target: MAGI2_4, Q86UL8
[14] = biological target: MAST1, Q9Y2H9
[15] = biological target: T6, MPP7, Q5T2T1
T6 sequence (Q5T2T1 134-230, limits assumed, looked up): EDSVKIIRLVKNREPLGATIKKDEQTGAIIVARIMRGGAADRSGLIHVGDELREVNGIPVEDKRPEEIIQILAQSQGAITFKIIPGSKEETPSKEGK

[16] = biological target: T7, NHERF3_3, Q5T2W1
T7 sequence (Q5T2W1 238-333, limits assumed, looked up): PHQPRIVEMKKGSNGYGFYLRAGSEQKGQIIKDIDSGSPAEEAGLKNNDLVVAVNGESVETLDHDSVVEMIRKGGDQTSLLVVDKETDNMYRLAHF

[17] = biological target: T8, NHERF3_4, Q5T2W1
T8 sequence (Q5T2W1 373-468, limits assumed, looked up): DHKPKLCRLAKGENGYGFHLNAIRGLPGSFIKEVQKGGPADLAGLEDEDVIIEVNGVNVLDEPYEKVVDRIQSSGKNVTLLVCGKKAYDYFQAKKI

[18] = biological target: T9, PCLO, Q9Y6V0
T9 sequence (Q9Y6V0 4491-4600, limits assumed, looked up): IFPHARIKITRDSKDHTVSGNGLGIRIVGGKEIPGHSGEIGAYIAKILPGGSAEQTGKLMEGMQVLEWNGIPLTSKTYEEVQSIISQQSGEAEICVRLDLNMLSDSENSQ

[19] = biological target: PDZRN4_1, Q6ZMN7
[20] = biological target: T10, RHPN1, Q8TCX5
T10 sequence (Q8TCX5 508-602, limits assumed, looked up): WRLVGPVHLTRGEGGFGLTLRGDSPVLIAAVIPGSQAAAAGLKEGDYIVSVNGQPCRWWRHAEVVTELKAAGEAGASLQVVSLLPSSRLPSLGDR

[21] = biological target: T11, SNTA1, Q13424
T11 sequence (Q13424 82-180, limits assumed, looked up): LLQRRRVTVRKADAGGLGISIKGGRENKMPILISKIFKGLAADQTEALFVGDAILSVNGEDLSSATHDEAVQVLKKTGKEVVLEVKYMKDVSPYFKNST

[22] = biological target: T12, SYNJ2BP, P57105
T12 sequence (P57105 8-110, limits assumed, looked up): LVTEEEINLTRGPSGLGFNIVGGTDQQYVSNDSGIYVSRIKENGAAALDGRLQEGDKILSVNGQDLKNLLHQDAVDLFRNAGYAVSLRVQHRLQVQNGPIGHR

[23] = biological target: T13, TX1BP3, O14907
T13 sequence (O14907 10-122, limits assumed, looked up): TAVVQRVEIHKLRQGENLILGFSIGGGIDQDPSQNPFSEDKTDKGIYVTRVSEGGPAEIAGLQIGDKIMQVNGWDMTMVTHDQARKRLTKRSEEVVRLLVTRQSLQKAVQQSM

Chain of MAGI2_4, Q86UL8 (Q86UL8 772-865): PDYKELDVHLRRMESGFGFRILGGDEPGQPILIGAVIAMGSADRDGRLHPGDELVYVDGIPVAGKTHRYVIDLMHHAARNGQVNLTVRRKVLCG
Chain of GRID2IP_2, A4D2P6 (A4D2P6 272-370): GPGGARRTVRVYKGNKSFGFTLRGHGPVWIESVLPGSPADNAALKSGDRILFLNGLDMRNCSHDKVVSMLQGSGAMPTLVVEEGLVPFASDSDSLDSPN
Chain of MAST1, Q9Y2H9 (Q9Y2H9 962-1065): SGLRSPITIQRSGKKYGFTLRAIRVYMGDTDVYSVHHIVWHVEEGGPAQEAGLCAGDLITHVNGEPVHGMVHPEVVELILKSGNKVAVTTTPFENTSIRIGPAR
Chain of Inadl_5, Q8NI35 (Q8NI35 673-780): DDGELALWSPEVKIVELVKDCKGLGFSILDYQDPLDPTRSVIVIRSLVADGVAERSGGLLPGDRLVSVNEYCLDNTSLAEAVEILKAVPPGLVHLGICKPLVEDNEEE
Chain of GRIP2_7, Q9C0E4 (Q9C0E4 934-1023): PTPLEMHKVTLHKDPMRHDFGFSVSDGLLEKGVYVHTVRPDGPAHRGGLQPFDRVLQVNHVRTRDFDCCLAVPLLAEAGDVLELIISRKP
Chain of DLG1_3, Q12959 (Q12959 457-571): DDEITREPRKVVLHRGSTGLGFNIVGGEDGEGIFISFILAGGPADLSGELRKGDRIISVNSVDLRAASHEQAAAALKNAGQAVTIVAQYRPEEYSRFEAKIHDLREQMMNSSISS
Chain of HTRA1, Q92743 (Q92743 360-477): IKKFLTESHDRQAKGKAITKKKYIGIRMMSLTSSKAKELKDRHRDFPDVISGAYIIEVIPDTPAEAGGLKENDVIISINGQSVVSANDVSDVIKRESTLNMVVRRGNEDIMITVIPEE
Chain of PDZRN4_1, Q6ZMN7 (Q6ZMN7 213-318): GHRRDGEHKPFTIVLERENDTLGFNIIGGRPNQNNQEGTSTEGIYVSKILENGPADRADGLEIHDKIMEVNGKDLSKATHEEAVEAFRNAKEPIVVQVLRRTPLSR
Chain of LIMK2, P53671 (P53671 143-248): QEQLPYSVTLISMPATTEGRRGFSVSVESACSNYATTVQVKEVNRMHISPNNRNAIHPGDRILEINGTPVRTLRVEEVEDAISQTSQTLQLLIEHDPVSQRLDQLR

| Binder | pKd [1] | pKd [2] | pKd [3] | pKd [4] | pKd [5] | pKd [6] | pKd [7] | pKd [8] | pKd [9] | pKd [10] | pKd [11] | pKd [12] | pKd [13] | pKd [14] | pKd [15] | pKd [16] | pKd [17] | pKd [18] | pKd [19] | pKd [20] | further results |
| --- | --- | --- | --- | --- | --- | --- | --- | --- | --- | --- | --- | --- | --- | --- | --- | --- | --- | --- | --- | --- | --- |
| KPDKQEEFYA [SDC3, O75056] | below the threshold | 3.64 | below the threshold | below the threshold | below the threshold | below the threshold | below the threshold | below the threshold | 4.9 | below the threshold | below the threshold | below the threshold | below the threshold | 3.64 | below the threshold | below the threshold | below the threshold | below the threshold | below the threshold | below the threshold | pKd [21]: below the threshold; pKd [22]: below the threshold; pKd [23]: below the threshold |
| FVFESRKEIL [TBPL1, P62380] | below the threshold | below the threshold | below the threshold | below the threshold | below the threshold | below the threshold | below the threshold | below the threshold | 3.89 | below the threshold | below the threshold | below the threshold | below the threshold | 4.21 | below the threshold | below the threshold | below the threshold | below the threshold | below the threshold | below the threshold | pKd [21]: below the threshold; pKd [22]: below the threshold; pKd [23]: below the threshold |
| PLATCDETSI [SEMA4F, O95754] | below the threshold | 3.9 | below the threshold | below the threshold | below the threshold | below the threshold | below the threshold | below the threshold | 3.89 | below the threshold | below the threshold | below the threshold | below the threshold | 4.64 | 3.54 | below the threshold | below the threshold | below the threshold | 4.33 | 4.93 | pKd [21]: 4.01; pKd [22]: 4.62; pKd [23]: below the threshold |
| GTMFLRETSL [GUCY1A2, P33402] | 5.09 | 4.79 | below the threshold | below the threshold | 4.62 | below the threshold | below the threshold | 3.84 | 3.77 | below the threshold | below the threshold | 4.33 | below the threshold | 5.08 | below the threshold | below the threshold | 4.38 | below the threshold | 5.71 | 4.8 | pKd [21]: 5.64; pKd [22]: 5.41; pKd [23]: 5.31 |
| IKLETKKTKL [SLC15A2, Q16348] | 3.97 | below the threshold | 3.69 | below the threshold | 4.71 | below the threshold | below the threshold | below the threshold | below the threshold | 3.48 | below the threshold | below the threshold | below the threshold | 4.86 | below the threshold | 4.67 | 4.77 | below the threshold | 3.56 | 3.76 | pKd [21]: 3.59; pKd [22]: below the threshold; pKd [23]: 4.02 |
| GQNMTVSVVI [PRLHR, P49683] | below the threshold | 3.74 | below the threshold | below the threshold | below the threshold | below the threshold | below the threshold | below the threshold | 4.82 | below the threshold | below the threshold | below the threshold | below the threshold | 3.9 | below the threshold | 4.02 | 3.73 | below the threshold | below the threshold | below the threshold | pKd [21]: 3.89; pKd [22]: 3.47; pKd [23]: below the threshold |

— article PMC9482650, “Quantitative fragmentomics allow affinity mapping of interactomes” (Nature Communications, 2022)
